The data set in a line: label from the status in PepcDB records.
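Further: failed if final PepcDB status was selected cloned or expressed and not failed if soluble or beyond.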

With “MEKFTVSKRHWLLLWGLQLGLAGGAAPVFSQAVLPYTPNLDQQQLEDQGLALTEDVVQLVRFQQYDLAFPRAKLATQLAPEQFQTWFILGTLYLQQEEVEPGITVLKKAEALAPEEAGIKFTLGNAYFQKGQYDQAVEVLLAGLAQRPDTPAALFDLGNAYLKLVKYPDAVTAYQKALKAEEQFWPALNNIGLIEYEQGKIDTALKRWQEVIKIDSEQPEPQLAIAVALYKQGKTEEGLRKAQDALNLDSRYGEIDFLVKNLWGEQLIADTKALFATPTMVEVLRTLPPPSDDL”, the protein production result was “failed”.

Consider “MEKIIVVKYRDVKLKSPILIGGLPGIGNVGKIAADYIVEKLNMVKIYDIFSEYLPPQVFINDDSEIHLVRNSIYYKKMRGKHDLLVLGGDFQGTTQEAQYELSYKMLELAKDMNVSEVYTLGGYSVGKIVERPRVLGAVTDKKLIPELEKNGVIFPKGEPGGGIVGSAGLILGLGMEIFKINGACLMGETSGYFADPKSAMEVLNVLQKQIGIKIDMSDIETRSKQIEQITGKMQEEFQNKQGKEDLGYFG”, for which the protein production entry is “failed”.

Regarding “MEKKANHGDDVQESVPIIHSQVVKIKREFEKIQHPSLKQPEMPLVFREIMGPRRSRSPLGLGERERSIPVGN”, the protein production result is given as “failed”.

Consider “MEKKKVTIPQVCHGHSRPVVDLFYSPITPDGFFLISASKDSHPMLRNGETGDWIGTFEGHKGAVWSSCLDNNALRAASASADFSAKLWDALTGDVLHSFEHKHIVRACAFSEDTKSLLTGGFEKILRVFDMNRLDAPPTEVDKSPGSIRTLTWLHSDQTILSSCTDIGGVRLWDVRSGKIVQTLETKSPVTSAEVSQDGRYITTADGSTVKFWDANHFGLVKSYDMPCNIESASLEPKSGEKFVAGGEDMWVRVFDFYTGEEIGCNKGHHGPVHCVRFTPTGLSYASGSEDGTIRIWQTTPANPEENETSSRRVKHSVDEVSKKIEGFHINKEGKTAEKPSDT”, for which the protein production result is “failed”.

For “MEKKLAPQFDNFYQSCRRYFQKLSRNKNFRSLKVYLLILTIVMVVIINPLSSNISGIVNILPTTTEKITHKSSAQQTDKQSHKTSNKAAYKTSWIGNTFGGKKWVQIQMEGIYVTPNGTVYVNSHWDEAGREVGIYKDGDVIGKADDLHGWGRLGGKAITANQKYLYVAMRQSHEGKPEDDYPPKGTTWYNVRRYDLSGKPAPFAGGRGWDKSMLIVNSKNDVTGLATKDKELYVSDPANDRLRVYNTDTMQELRSFSVPNPGAIAVDRQNNLWVVQKKKIVRYSPQGKQLAQQITDVANPSAIAFDPQGRLLVADNGKRQQVLIYNIANKPKQVGTLGDKGGIYGGTSGEVKDGKLYGITGVGTDKSGNIYVSNHGFNSTGADLRKFSSSGKLQWRLLGLQFIDNADADPDSDGRDVFTKNEHFVMDYSKNNGKEWTYKGYTLDKFRYPDDGRLHTTPTSAFVRRLGGKRLLYLSSEMMAERLLIYRFDGEIAVPCGIFGKNHLSWPPNQPKDGSWLWRDVNGDGSIQNNEYKTLGEEDGSVWGWEIDSKGDIWQAAEAGYIKHYPYQKLDNHGCPIYGQAVGGRIPMPAPFKTLTRIKYFPKQDVMYLGGYTNEHPNLDGDWGLVGTEIVRYDNWSKKRNLRWRIVLPYNHQTDPKLHIKSIDVAGDRVFAVASKKAEVYVYKATTGEALQMLTPGAEVGGESGWIDIPYGIRAFRRANGEYLVFVEENAKGKVLMYRLPG”, the protein production entry is “failed”.

As for “MEKKLTVNVSDTERIASVLAGSYFMYRSLKRQPKNYAAIASAGLLLFRGVTGHCPGYSAAGKKTLPAPVHNIDIETSVIVNRPVDTVYSFWRRLENLPLFMTHLKSVKQKDHNKSDWEAYLPGGIGSIHWEAKIVKDKPGKVIAWSSLENSTIHNAGKVMFEDIGELGTVINVVISYQAPLGVAGEKVLALLTPTFEKMIRKDIVNFKQYIETGKLPTDKEYAENGKSQFE”, the protein production entry is reported as “failed”.

In the case of “MEKLENFWTRDELNTFFDYVTPERDVEQFTMFRVLAYSGIRKGELLALTWKDINFEDNTLRVNKTLTQGLGGKLIVQPPKSRAGRRTIDLDDSTMRYLRQWKGVQRETFLGMGFNTNNVDQLVFASNRNHFRSMNTPTKWLNKAIKATGLKHISIHGFRHTHASLLYQSGVGLKETQQRLGHSRADSSVTLDVYTHTTEQQNVAALQRFENYVEAKLEHHHHHH”, the protein production result is reported as “failed”.

As for “MEKPDIQRLTNFLIVYTKTLLGAGTYTARVAKCVGRIAEVYGYEININFFFHHITLNVVDMDDNSIQRTYVIPNHHAHVNFKLIFDLSALSWAIYDHKYDLEKAKVVFEQISQQKKHSYLLNLLFVSMANSAFCRLFGGDFGAGNLVFFATFVGLLLRYILTKAKIDLRIQYILCSFISSWFVFFGLDMGYTNTSDVALGSSILYLIPGVFFINSVIDILKDHILMGLSRIISVAILICCIALGIYMTLSISDFGILR”, the protein production entry is on record as “failed”.

As for “MEKQKEVQKEYEEYQYMLDTETWKKELSQFKLSSSEKISKNPKVSIIIANYNNAPYLKKMMDSLVQQTIGIEQLQVMFIDDCSTDHSLKVIEPYLERYPNIEIYQLLENTGGAHGPRNVGIVNARGEYSVFLDADDWYDLNALKYLSDLLDDSHDDFAVSGLIQSTDGHLMLKSKPYYVDGSFKNRSIQELPAEFYGWLGPQAIMLRTSLIHNNNLHFVNQRVADDVLFFYEAMRFSKTITQGERLTTYLNRDADNESLSKSINRTFMLSWLRALSYINQQFPDDLSKERMLARRLEWLIYDFCIRRNTGYPFSKRRLQDFKVQMDQYLGELNFDPSPYFRSDVRQIIWTFLQTNDIDGLYWFIQCQSIRWVLVNRFGYVSKTERSYYYPRLLKRFPAVRMNAYAEATQREGNTLSLNVYTHQKITGFEIKELKNPFETRQRLAFKKISETSYQVELPEKFSNKESRFTIVFDNYLEIGVKDFSKFFALEHHHHHH”, the protein production entry is given as “failed”.

As for “MEKREEAGEYHSKDFEWEFLKNIVENDPSLSHHLHHHHQNLSKYLPDSQPWQDFHSRHSSGKFFKERRYLLKEFPELVSCGENSKLLEIGCGNGSTVLPILRGSKNITVYACDCSSDALVRTKENIDRAISSVDNFHSFCCDFSTSEFPDWVACDRCRDKFMLNHSGGSESKHCIGGVDFVTLIFTLSAVPKERMPRAIKECFAVLKPGGLLLFRDYGLYDMTMLRFEPEKRVGFREYVRSDGTLSYFFCLDTARKLFTDAGFIEVELEYCCVKAVNRRKGKDMYRVWVHGKFQKPFSN”, the protein production entry is given as “failed”.

For the sequence “MEKRQFMKMKEKLKRACFEFAVSNRYLYNLAKRILDSSPKLQKIKEFLIPKEFLIPAANLSNVFEPETSFQNSGRFFKKIKTCFNGGLPPENLDQDLAIINQRWNVNNEGYQIFSHRKILGPFLVRGRRLVHGEVRRYVDPIFHLQREFNASVVRILNRTTEDLRVLSSKNDAIEGKLNTVEEKISGTVRKDEFKEFKDKIMINHDKLQTDFYELKNSLTKNLEELSSTVESIKAKIDTAEEKISGTDIHTSDYYFLFEEKFRGSRELVKARLRRYIPYFKGCRRVLDIGCGRGEFLELCKEEGIESIGVDINEDMIKFCEGKFNVVKSDAIEYLKSLPDKYLDGVMISHFVEHLDPERLFELLSLCYSKMKYSSYIVIESPNPTSLYSLINFYIDPTHKKPVHPETLKFILEYLGFRDVKIEFFEECEELTKLAKIDSNTVSEEVIRVINENIEKLNRILFGPQDYAIIAKK”, the protein production result is listed as “failed”.

As for “MEKSKKLPFEVDRRSVYKCVQCGTCRSVCPVFDVVGWESANTRGRMLIIKSLIEGRPPSEDVLSSLASCTTCGICAAKCPAGANPPEVVEAARAQLVKCGVTTDAQLEHHHHHH”, the protein production result is “failed”.

As for “MEKSSFAAANMTIMSEPTTPTSQAHDSGASANVIATVETEIRQTARFPTRWTAISSALVVLLCVLALILVPIPFVARSPGQTVNLLSTNERGKPMIQVDGLTTRHGEGEMRMTTVSITRADSRLSMAEALVAHLRADHDVLQREAIYPPGRSPQQVDADESYMMDTSERDAAVAALRAAGQPVTEMPMVSAVSAAGPAHGKLAPGDLIEKVDGKPMASVLDVGKAVRKHTVGDTVVFVVLRNSSVKTIAVTTVSSVSDRRAPAVGVTIDTGYRYTPTITYNIPGDIVGPSAGLAMALSIYQMVAPNDLIGSLRIAGTGGISPDGNVVAIGGIQEKIAGAERDGAKIFLVPAGNCRDISGVETSMRLVKVSSLKDAIAAIQKIRAGGTGIPHC”, the protein production result is “failed”.

Take “MEKVTFVRIADLENHNNDGGFWTVIDGKVYDIKDFQTQSLTENSILAQFAGEDPVVALEAALQFEDTRESMHAFCVGQYLEPDQEGVTIP”: the protein production result is given as “not failed”.

Regarding “MEKYEELFARIKEKAKLIDEKIFELIPEKDPRVLYEAARHYPLAGGKRVRPFVVLTSTEAVGGDPLRAIYPAVAIELIHNYSLVHDDIMDMDETRRGKPTVHRIWGVNMAILAGDLLFSKAFEAVARAEIPPEKKARVLEVIVKASNELCEGQARDLEFEKKSTVTIEEYMEMISGKTGALFEASAKVGGIIGTDNEEYIKALSSWGRNVGIAFQIWDDVLDLIADEKKLGKPVGSDIRKGKKTLIVAHFFENADEKDKQRFLKIFGKYAGDVKGRGIIEEDIKSDVMEAIDLLKKYGSIDYAAEIAKDMIKKANEALRILPKSKARMDLELLAKFIVEREY”, the protein production entry is reported as “not failed”.

Turning to “MEKYIFWVTAIFQIGVFALMLYYLFIALFGFYKKKDTKTFEPQKKFAMLVAAHNEEVVIENLVESLKHLDYPKELYDIFVIADNCTDNTAKIARAAGANVFERFNKEKRGKGFALEWMFDKIFKMDTHYDGIAVFDADNLVDKNFLKEMNNKMCEGFKVVQGYIDSKNPQDSWITESYAIAFTSANRMLQLAKSNIGLSAQIGGTGFVIDTATLKKLGWGATCLTEDLEFSCKLILNGEKVGWAHDAIIYDEKPLTLKASWNQRKRWMQGFADVATRYGMKLLKKSIKDRSLVAFDCTLYVMQPFVTLATGLAGLLTFVQIRAVDGLGIFVISYLFNATVWQLFCVFQFLLTPFALLFDKKMSGKLFVVLGLYACNVFIQPYLINQLGILDNIMLLTLFNVAYIGIFLIGTLLFLGKRNFQIFYRYLIYPLYILTWIPITIQGIIDKDKKEWSHTKHVRQIGIYEV”, the protein production entry is given as “failed”.

On to “MELDGKAPSHRNLNVQTWSTAEGAKVLFVEARELPMFDLRLIFAAGSSQDGNAPGVALLTNAMLNEGVAGKDVGAIAQGFEGLGADFGNGAYKDMAVASLRSLSAVDKREPALKLFAEVVGKPTFPADSLARIKNQMLAGFEYQKQNPGKLASLELMKRLYGTHPYAHASDGDAKSIPPITLAQLKAFHAKAYAAGNVVIALVGDLSRSDAEAIAAQVSAALPKGPALAKIEQPAEPKASIGHIEFPSSQTSLMLAQLGIDRDDPDYAAVSLGNQILGGGGFGTRLMSEVREKRGLTYGVYSGFTPMQARGPFMINLQTRAEMSEGTLKLVQDVFAEYLKNGPTQKELDDAKRELAGSFPLSTASNADIVGQLGAMGFYNLPLSYLEDFMRQSQELTVEQVKAAMNKHLNVDKMVIVSAGPTVAQKPLEHHHHHH”, for which the protein production result was “not failed”.

“MELISIIVPVYNGEIYIGRCLDSILEQTYQNLEIIIIDDGSSDRTGDICEKYFLEDRRIKYFYQENRGQSVARNNGVLRCTGDWIAFLDSDDVYLPYSIEVMYNIQKATNADIVLTSIGNFNNTYNTSINSQYLKEIKLYTLEVALEEMYYGKTYGVSPLAKLYPRSNLLSNPYPEGKIHEDMDTTFKLISCASKIAVCDIVTAVVYFSDNSTTRTKFNERMLYFFEAIQNNIVFINLNFPHNTSLISAVIYNEVFGGIDICGKMIDFKLYDTVDYYRKKYRKYFKTILFNNRISVKEKVKYILFISSIRYFTIVRKIYNLRLSRNGLEHHHHHH”: the protein production result is recorded as “failed”.

As for “MELKDYYAIMGVKPTDDLKTIKTAYRRLARKYHPDVSKEPDAEARFKEVAEAWEVLSDEQRRAEYDQMWQHRNDPQFNRQFHHGDGQSFNAEDFDDIFSSIFGQHARQSRQRPATRGHDIEIEVAVFLEETLTEHKRTISYNLPVYNAFGMIEQEIPKTLNVKIPAGVGNGQRIRLKGQGTPGENGGPNGDLWLVIHIAPHPLFDIVGQDLEIVVPVSPWEAALGAKVTVPTLKESILLTIPPGSQAGQRLRVKGKGLVSKKQTGDLYAVLKIVMPPKPDENTAALWQQLADAQSSFDPRKDWGKA”, the protein production result is reported as “failed”.

Values taken from a protein production outcome set (Wang et al. 2014).
